We go through one molecule from patent publication US20170320947A1 (published 2017).

For one assay, the target named is Human PSMA. In words: BLI (Octet).
A further assay deals with T1, Cyno PSMA.
T1 chain: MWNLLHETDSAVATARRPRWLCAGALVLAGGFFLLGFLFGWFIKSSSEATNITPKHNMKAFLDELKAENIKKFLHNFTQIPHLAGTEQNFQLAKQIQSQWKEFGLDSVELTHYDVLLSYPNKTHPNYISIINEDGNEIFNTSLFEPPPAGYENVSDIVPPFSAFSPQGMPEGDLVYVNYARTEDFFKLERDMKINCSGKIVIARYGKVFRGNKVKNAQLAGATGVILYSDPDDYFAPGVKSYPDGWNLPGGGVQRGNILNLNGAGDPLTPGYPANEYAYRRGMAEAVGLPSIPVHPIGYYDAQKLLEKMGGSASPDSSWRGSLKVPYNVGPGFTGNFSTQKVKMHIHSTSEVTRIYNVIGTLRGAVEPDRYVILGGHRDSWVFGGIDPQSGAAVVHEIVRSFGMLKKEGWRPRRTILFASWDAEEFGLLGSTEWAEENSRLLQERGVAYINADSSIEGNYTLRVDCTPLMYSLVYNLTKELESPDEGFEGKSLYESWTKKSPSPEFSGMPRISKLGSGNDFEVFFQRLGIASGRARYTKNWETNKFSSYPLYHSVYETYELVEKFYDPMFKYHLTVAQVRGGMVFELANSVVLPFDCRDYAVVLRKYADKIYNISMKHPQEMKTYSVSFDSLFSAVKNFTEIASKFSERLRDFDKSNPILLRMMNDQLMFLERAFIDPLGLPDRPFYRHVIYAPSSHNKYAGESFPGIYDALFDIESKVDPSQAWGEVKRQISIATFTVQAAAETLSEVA
As to the kind of experiment: BLI (Octet).

B1: XENP14484 (bispecific antibody)
heavy: EVQLVQSGAEVKKPGASVKVSCKTSGYTFTEYTIHWVRQAPGQSLEWMGNINPNNGGTTYNQKFQGRVTITVDKSTSTAYMELSSLRSEDTAVYYCAAGWNFDYWGQGTLVTVSSASTKGPSVFPLAPSSKSTSGGTAALGCLVKDYFPEPVTVSWNSGALTSGVHTFPAVLQSSGLYSLSSVVTVPSSSLGTQTYICNVNHKPSDTKVDKKVEPKSCDKTHTCPPCPAPPVAGPSVFLFPPKPKDTLMISRTPEVTCVVVDVKHEDPEVKFNWYVDGVEVHNAKTKPREEEYNSTYRVVSVLTVLHQDWLNGKEYKCKVSNKALPAPIEKTISKAKGQPREPQVYTLPPSREEMTKNQVSLTCDVSGFYPSDIAVEWESDGQPENNYKTTPPVLDSDGSFFLYSKLTVDKSRWEQGDVFSCSVMHEALHNHYTQKSLSLSPGK
scFv-Fc: not shown
light: DIVMTQSPDSLAVSLGERATLSCRASQDVGTAVDWYQQKPDQSPKLLIYWASTRHTGVPDRFTGSGSGTDFTLTISSLQAEDVAVYFCQQYNSYPLTFGAGTKVEIKRTVAAPSVFIFPPSDEQLKSGTASVVCLLNNFYPREAKVQWKVDNALQSGNSQESVTEQDSKDSTYSLSSTLTLSKADYEKHKVYACEVTHQGLSSPVTKSFNRGEC
B1: the dissociation constant Kd with Human PSMA worked out at 0.4 nM; in the assay with Cyno PSMA, 0.2 nM.
